# In the nanobody polyreactivity screen of Harvey et al. (2022):
# Test: yeast display, Sf9 membrane polyspecificity reagent, FACS + sequencing; frameworks hold sequencing errors
# Outline: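 Galactose-induced (36–48 hours) yeast carrying a synthetic nanobody display library were exposed to 10% biotinylated, detergent-solubilized Sf9 membrane reagent at 4 °C for 1 hour. FACS followed streptavidin microbead enrichment, using low and high (top ~1%) gates for expression (anti-HA) and reagent binding (streptavidin). Colony PCR, MiSeq 2 × 250 sequencing and CDR-length filtering followed. Labels for polyreactivity reflect the gate of origin.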
row,Sequence,polyreactivity (PSR sort gate)
1,QVQLVESGGGLVQAGGSLRISCAASGRTFKSYAMGWYRQAPGKERELVAAISSSGGRTFYADSVKGRFTISRDNAKNTVYLQMNSLKPEDTAVYYCNARYCYRYGGYKPVGGYYWGQGTQVTVSS,high polyreactivity
2,QVQLVESGGGLVQAGGSLRISCAASGRTFPGYTMGWYRQAPGKERELVAAITRVGTTYYADSVKGRFTISRDNAKNTVYLQMNSLKPEDTAVYYCAAVISQGFIRYYYWGQGTQVTVSS,high polyreactivity
3,QVQLVESGGGLVQAGGSLRISCAASGRTFRKYAMGWYRQAPGKERELVAAISWSGGSTYYANSVKGRFTISRDNAKNTVYLQMNSLKPEDTAVYYCAAVPVHTGSLYWGFTSGYDYWGQGTQVTVSS,low polyreactivity
4,QVQLVESGGGLVQAGGSLRISCAASGRTFVRYAMGWYRQAPGKERELVAAIDSSGGRTYYADSVKGRFTISRDKAKNTVYLQMNSLKPEDTAVYYCNARRLASYRGYSWGQGTQVTVSS,high polyreactivity
5,QVQLVESGGGLVQAGGSLRISCAASGRTFWRNAMGWYRQAPAKERELVAAISRGGSTNYADSVKGRFTISRDNAKNTVYLQMNSLKPEDTAVYYCAARYYYRYNYWGQGTQVTVSS,high polyreactivity
6,QVQLVESGGGLVQAGGSLRISCAASGRTLRPNAMGWYRQAPGKERELVAAITWSGGRTYYADSVKGRFTISRDNAKNTVYLQMNSLKPGDTAVYYCAADYGYYRGGVYFQKLKFDYWGQGTQVTVSS,high polyreactivity
7,QVQLVESGGGLVQAGGSLRISCAASGSIFGSYTMGWYRQAPGKERELVAVINWSGDRTYYADSVKGRFTISRDNAKNTVYLQMNSLKPEDTAVYYCAARERAGYSRIRYNYWGQGTQVTVSS,low polyreactivity
8,QVQLVESGGGLVQAGGSLRISCAASGSIFGVNAMGWYRQAPGKERELVASITGGDSTNYADSVKGRFTISRDNAKNTVYLQMNSLKPEDNEVYYCAKDHYYRYEEGDYWGQATQVTVSS,low polyreactivity
9,QVQLVESGGGLVQAGGSLRISCAASGSIFHFNAMGWYRQAPGKERELVARISIGGGSTYYADSVKGRFTISRDNAKNTVYFQMKSLKPEDTAVYYCGVDGSPRYKYDYWGQGTQVNVSS,high polyreactivity
10,QVQLVESGGGLVQAGGSLRISCAASGSIFPAYDMGWYRQAPGKERELVAAITRGGSTDYADSVNGRFTISRDNAKNTVYLQMNSLKPEDTAVYFCAKRGYYYYHYVSGKPEDYWGQGTQVTVSS,low polyreactivity
11,QVQLVESGGGLVQAGGSLRISCAASGSIFPRYAMGWYRQAPGTERELVATISASGTDTYYADSVKGRFTISRDNAKNTVYLQMNSLKPEDTAVYYCAAGGYPGGEDYWGQGTQVTVSS,low polyreactivity
12,QVQLVESGGGLVQAGGSLRISCAASGSIFRNYAMGWYRQAPGKERELVAAISRNGGTTYYADSVKGRFTISRDNAKNTVYLQMNSLKPEDTAVYYCARLYYTQKDSKTGYGYWGQGTQVTVSS,high polyreactivity
13,QVQLVESGGGLVQAGGSLRISCAASGSIFSYYAMGWYRQAPGTERELVAAITRGGTTYYADSVKGRFTISRDNAKNTVYLQMNSLKPEDTAVYYCAVYYYSGTAGYRYGYWGQGTQVTVSS,high polyreactivity
14,QVQLVESGGGLVQAGGSLRISCAASGSIFVTNAMGWYRQAPGKERELVAAISSGGNTNYADSVKGLFTISRDNAKNTVYLQMNSLKPEDTAVYYCAKDPDKVDYVDMDYWGQGTQVTVSS,low polyreactivity
15,QVQLVESGGGLVQAGGSLRISCAASGSIFVYYGMGWYRQAPGKERELVAAISSGGSTHYADSVKGRFTISRDNAKNTVYLQMNSLKPEDTAVYYCAAERFFWLRSYPRYYYWGQGTQVTVSS,low polyreactivity
16,QVQLVESGGGLVQAGGSLRISCAASGSIYSAYVMGWYRQAPGKERELVSAITRSGGSTYYADSVKGRFTISRDNAKNTVYFQMNSLKPEDTAVYYCAVDYLLHYYSYIEDYWGQGTQVTVSS,low polyreactivity
17,QVQLVESGGGLVQAGGSLRISCAASGSIYWDNAMGWYRQAPGQESELVAAITSSGDTTYYADSVKGRFTISRDNAKNTVYLQMNSQKPEDTAVYYCAADYYTAYYVTLDYWGQGTQVTVSS,low polyreactivity
18,QVQLVESGGGLVQAGGSLRISCAASGSNFIRYAKGWYRQAPGKEMELVAAIRWSAGSTSYADSVKGRFTISRDNAKNTVYLQMNSLKPEDTAVYYCAAGPDYGWRRYDYWGQGTQVTVSS,low polyreactivity
19,QVQLVESGGGLVQAGGSLRISCAASGSNFPYYAMGWYRQAPWQERELVAAISRGGGTTYYADSVKGRFTISRDNAKNTVYLQMISLKPEDTAVYYCAARQWRISTPYDYWGQGTQVTVSS,high polyreactivity
20,QVQLVESGGGLVQAGGSLRISCAASGSNFRTYVMGWYRQAPGKERELVAAISRRGGSTYYADSVKGLFTISRDNAKKTVYLQMNSLKPEDTAVYYCAAEDEYSLEFSTLDYWGQGTQVTVSS,high polyreactivity
21,QVQLVESGGGLVQAGGSLRISCAASGSSFHDYAMGWYTQAPGKERELVAAISSSGTSTYYADSVKGRFTISRDNANNTVYLQMNILKPEDTAVYYCAVYAISFAWSGWTYEDYWGQGTQVNVSS,low polyreactivity
22,QVQLVESGGGLVQAGGSLRISCAASGSTFAYNAMGWYIQAPGKERELVAVISKGGGRTYYADSVKGRFTISRDNAKNTVYLQINSLKPEDTAVYYCAARYIPVYTREREYNYWGQGTQVTVSS,high polyreactivity

row,Sequence,polyreactivity (PSR sort gate)
1,QVQLVESGGGLVQAGGSLRISCAASGSTFEYYAMGWYRQAPGKERELVATISIDGRTNYADSVKGRFTISRDNAKNTVYLQMNSLKPEDTAVYYCAARPYWRHRYDYWGQGTQVTVSS,low polyreactivity
2,QVQLVESGGGLVQAGGSLRISCAASGSTFFRNAMGRYRQAPGKERELVAAITWSGGSTYYADSVKGRFTISRDNAKNTVYLQMNSLKPEDTAVYYFAAGLSYWTPHYYPFDYWGQGTQVTVSS,low polyreactivity
3,QVQLVESGGGLVQAGGSLRISCAASGSTFFRYAMGWYRQAPGKERELVAAIYKSGASTYYADSVKGRFTISRDNPKNSVYLQMNSLKPEDTGVYYCNADVKNSSAREWQYGYDYWGQGTQVTVSS,low polyreactivity
4,QVQLVESGGGLVQAGGSLRISCAASGSTFGEYALGWYRQAPGKERELVAVITSDDNTYYADSVKGRFTISRDNAKNTVYLQMNSLKPEDTAVYYCATDDRRRFKYWGQGTQVTVSS,high polyreactivity
5,QVQLVESGGGLVQAGGSLRISCAASGSTFGGYVLGWYRPAPGKERELVAAISRSGASTYYADSVKGRFTISRDNAKNTVYLQMNSLKPEDTAVYYCAAYQARGLDYWGQGTQVTVSS,high polyreactivity
6,QVQLVESGGGLVQAGGSLRISCAASGSTFGRYAMGWYRQAPGKEREFVAAITQGGTNTYYADSVKGRFTISRDNAKNTVYLQMNSLKPEDTAVYYCARVRRYPLRYNYWGQGTQVTVSS,high polyreactivity
7,QVQLVESGGGLVQAGGSLRISCAASGSTFSPYAMGWYRQAPRKERELFAAISASGGGTYYADSVKGRFTISRDNAKNTVYLQMNSLKPEDTAVYYCARDYGWDISKGRYGYWGQGTQVTVSS,low polyreactivity
8,QVQLVESGGGLVQAGGSLRISCAASGSTFSRNAMVWYRQAPGKERELVATISRSGRTNYADSVKGRFTISRDNAKNTVYLQMNSLKPEDTAVYYCNAGYRRSYEYWGQCTQVTVSS,low polyreactivity
9,QVQLVESGGGLVQAGGSLRISCAASGSTFWGYAMGWYRQAPGKERELVATINQSAGSTYYADSVKGRFTISRDNAKNTVYLQMNSLKPEDTAVYYCAAEARVQFSYDYWGQGTQVTVSS,low polyreactivity
10,QVQLVESGGGLVQAGGSLRISCAASGSTFWGYDKGWYRQAPGKERELVAAITRNGGGTYYADSVKGRFTISRDNAKNTVYLQMNSLKPEDTAVYYCASTRGAYYLYGGHKMDYWGQGSQVTVSS,high polyreactivity
11,QVQLVESGGGLVQAGGSLRISCAASGSTLLRNAMGWYRQAPGKERELVAVITYSGGSTYYADSVKGRFTISRDNAKNTVYLQMNSLKPEDTAVYYCAADIWYYVRYPTDAYSKFDYCGQGTQVTVSS,low polyreactivity
12,QVQLVESGGGLVQAGGSLRISCAASGSTNEYAMGWYRQAPGKERELVAAITWSGGRTYYADSVKGRFTISRDNAKNTVYLQMNSLKPEDTAVYYCAKAYYARHGRYTYYSWGQGTQVTVSS,high polyreactivity
13,QVQLVESGGGLVQAGGSLRISCAASGSTSYNYVMGWYRQAPGKERELVAGITWSDDITYYADSVKGRFTISRDNAKNTVYLQMNSLKPEDTAVYYCAAEDRPLYWRFPDEMDYWGQGTQVTVSS,low polyreactivity
14,QVQLVESGGGLVQAGGSLRISCAASGTTFPYNGMGWYRQAPGKERELVASISWSGASTYYADSVKGRFTISRDNAKNTVYLQMNSLKPEDTAVYYCAADPGYYSWGSSQDDYWGQGTQVTVSS,low polyreactivity
15,QVQLVESGGGLVQAGGSLRISCAASGVIFGTYAMRSYRQAPGKERELVAAITSGGTTIYADSVKGRFTISRDNAKNTVYLQMNSLKPEDTAVYYCAARRLYVGYGYDYWGQGTQVTVSS,high polyreactivity
16,QVQLVESGGGLVQAGGSLRISCAAYGSTFGPYAMGWYRQAPGKERELVAAITWNGGSTYYADSVKGRFTISRDNAKNTVYLQMTSLKPEDTAVYYCAAKAYGRKGTYRVNYWGQGTQVTVSS,high polyreactivity
17,QVQLVESGGGLVQAGGSLRISCADSASIFWGYAMGWYREAPGKERELVATIRNRGGSTYYADSVKGRFTISRDNAKYTVYLQMNSLKPEDTAVYYCAAVSYRQYYGWGNYWGQVTQVTVSS,low polyreactivity
18,QVQLVESGGGLVQAGGSLRISCAPSGIIFTDYAMGWYRQAPGKERELVAAISSGGGSTYYADSVKGRFTISRDNAKNTVYLQMNSLKPEDTAVYYCAAEGYLISGAGDYLYDYYWGQGTQVTVSS,high polyreactivity
19,QVQLVESGGGLVQAGGSLRISCAPSGSTSVQYAMGWYRQAPGKERELVAAIDRSGGSTSYADSVKGRFTISRDNAKNTVYLQMNSLKPEDTAVYYCNADPVRSTYSYDYWGQGTQVTVSS,low polyreactivity
20,QVQLVESGGGLVQAGGSLRISCASSVRTFAWNAMGWYRQAPGKERELVAVITSGVSTNYADSVKGRFTISRDNANNTVYLQMNSLKPEDTAVYYCAARSWVYSVIGDNWGLGTQVTVSS,low polyreactivity
21,QVQLVESGGGLVQAGGSLRISCDASGSTFAWYAMGWYRQAPGKERELVAAISRTGRTYYADSVKGRFTISRDNAKNTVYLQMNRLTPEDTAVYYCAGRIERFYRDQRYDYWGQGTQVTVSS,high polyreactivity
